Reference: patent US20140161790A1
pKd: −log10 of the molar value.

What was measured:
[1] = target: human FcRn (heterodimer of alpha chain and beta2-microglobulin) (human) (UniProt P55899); experiment: Biacore (SPR), column 'hFcRn Affinity (uM)'; antibody captured on anti-hFab CM5 chip, hFcRn as analyte, PBS pH 6.0, 1:1 Langmuir fit
[2] = target: recombinant human TNF (human) (UniProt P01375); experiment: Biacore (SPR), column 'hTNF Affinity (pM)'; antibody amine-coupled to a CM4 chip, recombinant human TNF as analyte at 6.25-200 nM in HBS-EP pH 7.4, 1:1 Langmuir fit
recombinant human TNF (human), sequence (P01375 77-233 limits assumed): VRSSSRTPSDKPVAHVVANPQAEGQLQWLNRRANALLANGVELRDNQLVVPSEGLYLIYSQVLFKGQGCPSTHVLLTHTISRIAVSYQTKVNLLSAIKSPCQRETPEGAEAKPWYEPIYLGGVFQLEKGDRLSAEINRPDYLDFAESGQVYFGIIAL

pKd [1]: 5.70 | pKd [2]: 12.38
Substance: Humira (Commercial) adalimumab (antibody)
